Data as given in article doi:10.1101/816322 (bioRxiv, 2019).
Each block holds one binder with its values, some of them ahead of it.

Experiments:
[1] = target: T1, Flag-tagged Trichoplax adhaerens Bcl-2-like protein 2 (trBcl-2L2) (Trichoplax adhaerens, UniProt A0A1B1IJN9 1-211); assay: FRET or BRET
T1 sequence (looked up): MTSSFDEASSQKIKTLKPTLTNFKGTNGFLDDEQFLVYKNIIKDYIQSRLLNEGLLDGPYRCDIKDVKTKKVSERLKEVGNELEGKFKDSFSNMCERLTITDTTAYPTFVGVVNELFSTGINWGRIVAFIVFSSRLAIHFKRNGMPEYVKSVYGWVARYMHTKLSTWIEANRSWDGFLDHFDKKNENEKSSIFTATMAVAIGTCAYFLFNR

[2] = target: T2, Flag-tagged Trichoplax adhaerens Bcl-2-like protein 1 (trBcl-2L1) (Trichoplax adhaerens, UniProt A0A1B1IJP0 1-215); assay: FRET or BRET
T2 sequence (looked up): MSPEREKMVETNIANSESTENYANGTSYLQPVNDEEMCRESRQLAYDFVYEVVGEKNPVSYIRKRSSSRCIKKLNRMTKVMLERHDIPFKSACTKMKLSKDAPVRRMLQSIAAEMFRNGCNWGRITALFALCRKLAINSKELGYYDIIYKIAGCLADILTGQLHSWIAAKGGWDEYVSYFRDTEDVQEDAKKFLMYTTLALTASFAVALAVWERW

- FRET efficacy [1]: 5.45%
- FRET efficacy [2]: 11.2%
B1: EGFP-tagged Trichoplax adhaerens Bak (trBak, trBcl-2L4) (natural protein, UniProt A0A1B1IJN7 1-251, looked up)
chain: MSSTITIAESLENGENNDEQEEANTSRSQFRVTRAQVIRRQLSANPAHLPVSEQEVINETSSIFRSFVVESYQAERDGGIIAEEVRSFADQVQSSSNQTITPSSPTSEIGRHLAQLGDSYSVRFQNEFRLMITHLDINPGTAYRTFAGVARRLFRDGISWRRIVTLMAFGYQIAIDVMRSGVQGFLSRICNFIVRFISGEHIANWIARQGGWRAARYEGLASPGWPAIIGVATAAAASVFGVLWLSGYFRE

- FRET efficacy [1]: 1.97%
- FRET efficacy [2]: 5.84%
B2: EGFP-tagged Trichoplax adhaerens Bax (trBax, trBcl-2L3) (natural protein, UniProt A0A1B1IJP1 1-241, looked up)
chain: MADFTYVLITRSISTIFSSSCLIAMAHVKSVTSTPTTTTTTTTQSCPRREENLKEIAAESKKLFLDFIADRSAKDGQDQGCISQLTREHNELQIEPTSPTIQVARTIRQIGDELDSDPHLNGLLHKLHVTSSTAYSTFRRVAMRIFQDGQFNWGRIITLFFFGYRLTIRVLSESPIVEMIISWIARFIYEICSFWIAESGGWDAITQYIQQADWKNKYTLGLIAVGVLVTAFVTWQRYNSS
